Measured values taken from US20090215115A1, “SIALYLTR[…] SEQUENCE MOTIFS” (National Research Council of Canada, priority 2004, published 2009).

B1: Cst-I O:19: α-2,3-sialyltransferase Cst-I from Campylobacter jejuni strain O:19, amino acid sequence of FIG. 3, SEQ ID NO:8 (protein, listed as Campylobacter jejuni)
chain: MTRTRMENELIVSKNMQNIIIAGNGPSLKNINYKRLPREYDVFRCNQFYFEDKYYLGKKIKAVFFNPGVFLQQYHTAKQLILKNEYEIKNIFCSTFNLPFIESNDFLHQFYNFFPDAKLGYEVIENLKEFYAYIKYNEIYFNKRITSGVYMCAIAIALGYKTIYLCGIDFYEGDVIYPFEAMSTNIKTIFPGIKDFKPSNCHSKEYDIEALKLLKSIYKVNIYALCDDSILANHFPLSININNNFTLENKHNNSINDILLTDNTPGVSFYKNQLKADNKIMLNFYNILHSKDTLIKFLNKEIAVLKKQTTQRAKARIQNHLSYKLGQALIINSKSVLGFLSLPFIILSIVISHKQEQKAYKFKVKKNPNLALPPLETYPDYNEALKEKECFTYKLGEEFIKAGKNWYGEGYIKFIFKDVPRLKREFEKGE
modifications: sialyltransferase polypeptide sequence from strain O19
B2: Cst-I O:36: α-2,3-sialyltransferase Cst-I from Campylobacter jejuni strain O:36, amino acid sequence of FIG. 2, SEQ ID NO:6 (protein, listed as Campylobacter jejuni)
chain: MTRTRMENELIVSKNMQNIIIAGNGPSLKNINYKRLPREYDVFRCNQFYFEDKYYLGKKIKAVFFNPGVFLQQYHTAKQLILKNEYEIKNIFCSTFNLSFIESNDFLHQFYNFFPDAKLGYEVIENLKEFYAYIKYNEIYFNKRITSGVYMCAIAIALGYKTIYLCGIDFYEGDVIYPFEAMSTNIKTIFPGIKDFKPSNCHSKEYDIEALKLLKSIYKVNIYALCDDSILANHFPLSININNNFTLENKHNNSINDILLTDNTPGVSFYKNQLKADNKIMLDFYNILHSKDNLIKFLNKEIAVLKKQTTQRAKTRIQNHLSYKLGQALIINSKSVLGYLSLPFIILSIVISHKQEQKAYKFKVKKNPNLALPPLETYPDYKEALKEKECFTYKLGEEFIKASKNWYGGGYIKFYFKDVSRLKREIKEK
modifications: sialyltransferase polypeptide sequence from strain O36

Assay: α-2,3-sialyltransferase activity assay with capillary electrophoresis detection
Format: biochemical
Conditions: lysates of E. coli expressing the Cst-I protein; for sialyltransferase activity: acceptor 1 mM Lac-FCHASE, donor 0.2 mM CMP-Neu5Ac, 37° C., pH 7
Procedure: Assays. Protein concentration was determined using the bicinchoninic acid protein assay kit (Pierce, Rockford, Ill.). For all of the enzymatic assays, one unit of activity was defined as the amount of enzyme that generated one […] of product per minute. FCHASE-labelled oligosaccharides are prepared as described in Gilbert et al. (1997) Eur. J. Biochem. 249: 187-194. p-Nitrophenol-glycosides (p-NP-glycosides) were obtained from Sigma-Aldrich.
The -2,3-sialyltransferase activity was assayed at 37° C. using 1 mM Lac-FCHASE (6-(5-fluorescein-carboxamido)-hexanoic acid succimidyl ester), 0.2 mM CMP-Neu5Ac, 50 mM MOPS pH 7, 10 mM MnCl2 and 10 mM MgCl2 in a final volume of 10 μL. After 5 min the reaction mixtures with fluorogenic acceptors were diluted with 10 mM NaOH and analyzed by capillary electrophoresis performed using the separation conditions as described previously (Gilbert et al. (1997) supra.).

| Molecule | transfer of Neu5Ac from CMP-Neu5Ac to an acceptor | sialyltransferase activity [mU/ml] |
| --- | --- | --- |
| B1 | catalyze the transfer of Neu5Ac from CMP-Neu5Ac to an acceptor | 324.9 |
| B2 | catalyze the transfer of Neu5Ac from CMP-Neu5Ac to an acceptor | 50.3 |
